Drawing on patent US20230416347A1 (UNIVERSITY OF TENNESSEE RESEARCH FOUNDATION, published 2023), this text covers EC50, LogEC50 and Max for two molecules.

The target in test [1] is α-synuclein synthetic amyloid-like fibrils (UniProt P37840 1-140). Briefly: plate assay, time-resolved fluorescence (anti-human Fc, streptavidin-europium), 4PL fit.
Method: (§1) The mean and standard deviation (SD) of three replicates were calculated and the potency (EC50) was determined following fitting with a sigmoidal four parameter logistic (4PL) equation with logarithmic x-axis (Prism) (FIG. 14). A non-reactive hIgG1 was used as a negative control in a parallel assay (FIG. 13B).
Test [2] has as its target Tau 441 synthetic amyloid-like fibrils (UniProt P10636-8 1-441). The test is described as above.
Method: as §1
In test [3] the target is T1, rVλ6Wil fibrils.
T1 construct: domain: λ6 variable domain; Synthetic amyloid-like fibrils; also called rVλWIL; rVλ6Wil synthetic fibrils
Briefly: EuLISA.

Test [4] has as its target Per125 wtATTR extract (human, UniProt P02766 21-147). Kind of test: EuLISA.
The target in test [5] is T2, SHI ALλ liver extract.
T2 construct: Human AL amyloid extract; also called ALλ (SHI); ALλ SHI extract
Kind of test: EuLISA.

Test [6] concerns the target T3, TAL ALκ liver extract.
T3 construct: Human AL amyloid extract; also called ALκ (TAL); ALκ TAL
Kind of test: EuLISA.

Test [7] addresses T1, rVλ6Wil fibrils. Briefly: EuLISA on rVλ6Wil fibrils (FIG. 5A).
Test [8] has as its target T1, rVλ6Wil fibrils. Kind of test: EuLISA on rVλ6Wil fibrils (FIG. 5B).

Tau 441 synthetic amyloid-like fibrils, sequence (P10636 other isoform, or with tags, fused parts or gaps limits assumed): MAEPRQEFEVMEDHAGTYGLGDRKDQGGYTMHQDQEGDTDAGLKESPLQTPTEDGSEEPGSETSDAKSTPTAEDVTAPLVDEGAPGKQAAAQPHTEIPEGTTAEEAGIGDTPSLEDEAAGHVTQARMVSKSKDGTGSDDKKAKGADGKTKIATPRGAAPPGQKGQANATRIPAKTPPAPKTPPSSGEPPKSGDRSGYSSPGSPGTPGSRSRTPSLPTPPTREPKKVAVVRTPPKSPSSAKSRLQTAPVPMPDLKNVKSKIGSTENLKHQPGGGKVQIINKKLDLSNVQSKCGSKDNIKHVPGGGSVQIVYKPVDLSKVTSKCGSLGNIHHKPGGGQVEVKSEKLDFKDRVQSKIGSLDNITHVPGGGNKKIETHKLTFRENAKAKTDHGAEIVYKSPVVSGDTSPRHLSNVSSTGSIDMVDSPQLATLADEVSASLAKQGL

B1: PF.7 (VH9-D54E/VL4-N33S-VSPSV-p5R collected after 7 days of perfusion culturing) (antibody, human IgG1, kappa)
heavy: not shown
light: DVVMTQSPLSLPVTLGQPASISCRSSQSLVHRSGNTYLHWFQQRPGQSPRLLIYKVSNRFSGVPDRFSGSGSGTDFTLKISRVEAEDVGVYFCFQTTYVPNTFGGGTKLEIKRTVAAPSVFIFPPSDEQLKSGTASVVCLLNNFYPREAKVQWKVDNALQSGNSQESVTEQDSKDSTYSLSSTLTLSKADYEKHKVYACEVTHQGLSSPVTKSFNRGECVSPSVRAQRAQARQARQAQRAQRAQARQARQ
notes: Same construct as PF.1, perfusion culture for 7 days
The term EC50 denotes the concentration that produces a half-maximal response. Low readings indicate a more potent agent, high ones a less potent agent. In the case of B1, the concentration giving a half-maximal response (EC50) in test [1] amounted to 127 nM; in test [2], 1300 nM.

B2: chimeric antibody c11-1F4 (antibody, V domains shown)
VH: QVQLKESGPGLVAPSQSLSITCTVSGFSLSSYGVSWVRQPPGKGLEWLGVIWGDGSTNYHPNLMSRLSISKDISKSQVLFKLNSLQTDDTATYYCVTLDYWGQGTSVTVSS
VL: DVVMTQTPLSLPVSLGDQASISCRSSQSLVHRNGNTYLHWYLQKPGQSPKLLIYKVSNRFSGVPDRFSGSGSGTDFTLKISRVEAEDLGLYFCFQTTYVPNTFGGGTKLEIK
notes: Chimeric form of 11-1F4; also called ch11-1F4; chimeric (c) 11-1F4
In the case of B2, the EC50 was 291 nM in test [3]; 381 nM in test [4]; 256 nM in test [5]; ~72 nM in test [7]; ~100 nM in test [8]. Further, the LogEC50 in test [3] was 6.54 -log(M); in test [4] it was 6.42 -log(M); in test [5], 6.59 -log(M); in test [6] it was ~0.599 -log(M). Moreover, the Max in test [3] was 63.9; in test [4], 71.1; in test [5] it was 51.3; in test [6], ~17800.
